B1: CPEB3 Ribozyme (parent)
chain: GGGGGCCACAGCAGAAGCGUUCACGUCGCGGCCCCUGUCAGAUUCUGGUGAAUCUGCGAAUUCUGCUGU

Variants of: B1
Experiment: self-cleavage, relative activity (ratio to wild type); higher = more cleavage; co-transcriptional

Row | Variant | self-cleavage
1 | G4U U43C | 0.462
2 | G4C G17A | 0.0822
3 | G4C G17U | 0.0737
4 | G4U A16G | 0.444
5 | G4U A16C | 0.0815
6 | G5C C22A | 0.107
7 | G5C G50U | 0.243
8 | G4C A52U | 0.603
9 | G5C C29G | 0.113
10 | G5A U36C | 0.831
11 | G5A U36G | 0.521
12 | G4C U44C | 0.47
13 | G4C U44A | 0.373
14 | G4C C29U | 0.131
15 | G5A G65U | 0.513
16 | G5U G11A | 0.185
17 | G5U G11C | 0.0768
18 | G4U A60G | 0.302
19 | G4U C7G | 0.0264
20 | G4U C7A | 0.0496
21 | G4U G41A | 0.265
22 | G4U G41U | 0.251
23 | G4C U64G | 0.355
24 | G5C U26C | 0.109

Row | Variant | self-cleavage
25 | G4U U62A | 0.315
26 | G4A G58C | 0.701
27 | G5C A60U | 0.164
28 | G5C A60C | 0.171
29 | G5C A60G | 0.215
30 | G5A U20A | 0.0737
31 | G4U C27G | 0.0677
32 | G5C A42G | 0.282
33 | G4C C7G | 0.0794
34 | G4U U21G | 0.054
35 | G5C U43A | 0.183
36 | G4U A10C | 0.905
37 | G4U A10G | 0.784
38 | G5A C29G | 0.175
39 | G5U C34U | 0.111
40 | G5U A16C | 0.042
41 | G4U G31A | 0.0947
42 | G5A G48C | 0.956
43 | G5A G48U | 0.939
44 | G5A U49G | 0.781
45 | G5A U49C | 0.969
46 | G4C A23U | 0.801
47 | G5U A59C | 0.181
48 | G5U A59G | 0.139

Row | Variant | self-cleavage
49 | G4C U61A | 0.147
50 | G4C G30C | 0.0792
51 | G5A C22A | 0.134
52 | G4U C29G | 0.1
53 | G4U C29U | 0.192
54 | G4A U26G | 0.504
55 | G4A U26A | 0.604
56 | G4C A16U | 0.197
57 | G4C A16C | 0.0339
58 | G5C C6U | 0.158
59 | G5C C6A | 0.0948
60 | G5U C9G | 0.772
61 | G4A G31A | 0.227
62 | G4U C57A | 0.17
63 | G4A G25C | 0.114
64 | G4C U69C | 0.958
65 | G5C U20C | 0.0972
66 | G5C U20A | 0.0824
67 | G4A G47U | 0.899
68 | G5C G19C | 0.0995
69 | G4A U20C | 0.128
70 | G4U C33G | 1
71 | G5A G47U | 0.932
72 | G5U C12G | 0.1

Row | Variant | self-cleavage
73 | G5U C12A | 0.112
74 | G4U U69G | 0.941
75 | G4U U69C | 1.02
76 | G4U A13G | 0.649
77 | G5C G14A | 0.0874
78 | G5C G14C | 0.146
79 | G4U G17C | 0.112
80 | G4U G17U | 0.072
81 | G4C A10C | 0.844
82 | G4C A10G | 0.748
83 | G4U C24U | 0.193
84 | G5C U53A | 0.175
85 | G5C U53C | 0.151
86 | G5C U53G | 0.212
87 | G5C G25A | 0.0822
88 | G5A U67A | 0.953
89 | G4U U61A | 0.154
90 | G4U U61G | 0.439
91 | G5A G30C | 0.156
92 | G5A G30A | 0.156
93 | G5A A13U | 0.642
94 | G5A A13G | 0.88
95 | G4C C33U | 0.804
96 | G4C C33G | 0.98

Row | Variant | self-cleavage
97 | G4C C33A | 0.989
98 | G5C C33U | 0.468
99 | G4C U26C | 0.472
100 | G5A A16C | 0.134
101 | G5U G19A | 0.06
102 | G4C G56U | 0.339
103 | G4U A40C | 0.199
104 | G4C G47C | 0.718
105 | G4A U55A | 0.636
106 | G4A U55C | 0.351
107 | G4U G48C | 0.752
108 | G4U G48U | 0.813
109 | G5C A13U | 0.172
110 | G5C A13G | 0.273
111 | G5C A13C | 0.17
112 | G5A C6G | 0.0495
113 | G4A G17U | 0.145
114 | G5C C35G | 0.121
115 | G5C C35U | 0.162
116 | G5C C66A | 0.202
117 | G5C C66G | 0.186
118 | G5C U46G | 0.235
119 | G5C U69C | 0.568
120 | G4U | 0.806

Row | Variant | self-cleavage
121 | G4C | 0.69
122 | G4C A13C | 0.216
123 | G5A A15G | 0.846
124 | G5A U53C | 0.584
125 | G5A U53A | 0.74
126 | G5C A40U | 0.134
127 | G5U C6G | 0.115
128 | G5U C6A | 0.0825
129 | G4U C63U | 0.739
130 | G4U C63A | 0.306
131 | G5U A8U | 0.151
132 | G4A U36A | 0.13
133 | G4A U53G | 0.517
134 | G4A U53A | 0.602
135 | G4C U53G | 0.142
136 | G4C U46A | 0.663
137 | G4C U46G | 0.601
138 | G5A C39U | 0.653
139 | G5C C12U | 0.256
140 | G5C C12G | 0.141
141 | G5U A52C | 0.176
142 | G4U C6U | 0.31
143 | G4C C63G | 0.211
144 | G4C C35U | 0.0739

Row | Variant | self-cleavage
145 | G4C U43C | 0.406
146 | G4C U43G | 0.26
147 | G5U C29U | 0.103
148 | G4U G28A | 0.0947
149 | G4U G28U | 0.0847
150 | G5A G17C | 0.0889
151 | G5A G17A | 0.166
152 | G5U C18U | 0.063
153 | G4C U38C | 0.302
154 | G5A G19U | 0.197
155 | G5C U38C | 0.12
156 | G5C U38A | 0.145
157 | G4C C22G | 0.082
158 | G4C C22U | 0.074
159 | G5U C54G | 0.106
160 | G5U C54A | 0.104
161 | G4U G14A | 0.257
162 | G5C A59C | 0.135
163 | G5C A59U | 0.14
164 | G4C U55G | 0.231
165 | G4U G58U | 0.798
166 | G5A A40U | 0.719
167 | G4C C39G | 0.298

Reference: the RNAGym collection of RNA variant scans (doi:10.7554/elife.80360)
